Test results: the supplement of paper PMC9170038

Tested on: MS2 coat protein
Test: apparent KD of MS2 coat protein; higher = weaker reporter binding
Conditions: Eterna round: R107
Summary of the method: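 Apparent KD is reported per design as the median of normalised binding-curve fits across its clusters. The RNA switches were made by on-chip transcription from Illumina sequencing clusters. SNAP-549-labelled MS2 coat protein was then added in twofold steps (0.7 or 1.5 nM to 3 µM; 0.8–1.5 h to 10–20 min per step) in 100 mM Tris-HCl pH 7.5, 80 mM KCl, 4 mM MgCl2, without or with constant ligand.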

[1] = input ligand: theophylline 20 uM
[2] = input ligand: theophylline 2 mM
[3] = input ligand: tryptophan 2.4 mM

Row | Sequence | apparent KD of MS2 coat protein (input ligand: arginine 13.2 mM) | apparent KD of MS2 coat protein (input ligand: none) | apparent KD of MS2 coat protein [1] | apparent KD of MS2 coat protein [2] | apparent KD of MS2 coat protein [3]
1 | UGAGAGGGCGGAAGGAGCGACAUGAGGAUCACCCAUGUCUCCCGUUAUGGGAGUUCUUUAGGUCAGGUAGGUCGCCGGCCUCUCA [#1 Exclusion - Arginine B Attempt #10 (Inspired by Omei)] | 94.3 nM | 122 nM | 104 nM | 127 nM | 111 nM
2 | GUUGUAUACUCGGCCGCCACUGAGAGAGUCAUGUAAACAUGAGGAUCACCCAUGUAAUAUAUAUACAGGACCGGGAGUGUGGUAA [4.G] | 9.31 nM | 12.8 nM | 16 nM | 12 nM | 11.8 nM
3 | CAUGGGCUAAGACAUUAUUCGUAUUUUGAUACCAGAAAAUUGGCGUUCCCUUGGCAGCAAUAUACAUGAGGAUCACCCAUGUCCC [theeternabot_exclusion_MS2_Theo_A_23] | 38.8 nM |  | 70.9 nM |  | 58.3 nM
4 | ACAUGAGGAUCACCCAUGUAACGUCUUGAUACCAGACGAGAAGUAGUCCCUUGGCAGCAAAUACGUGAGGGUCACACAUGUGUAA [vvvmullin] | 13.8 nM |  | 34.4 nM |  | 22.1 nM
5 | UCACAUGAGGAUCACCCAUGUCAUGUUGAAGGAGCGACCAGGAGGUCAGGUAGGUCGCAACACAUGAGGAUCACCCAUGUGGCCC [Qetesh] | 87.5 nM | 172 nM | 119 nM | 159 nM | 149 nM
6 | AGCACACAUCCUGAUACCAGAGACAUGAGGAUCACCCAUGUCCGAUCGUCCUGCCUCAGACUCCCUUGGCAGCAGGAUGUGUGCU [Exclusion Theophylline B GF7] | 12.5 nM |  | 18.6 nM |  | 13.4 nM
7 | GGCACCAGGAGAAGGAGCGUGAAGACAUGAGGAUCACCCAUGUAGAGGCCCGUACAGGGUUCGCAGGUAGGUCGCUCCUGGUGCC [#1 Same State - Arginine B Attempt #12 (HarryS)] | 19.3 nM | 18.4 nM | 27.3 nM | 22.6 nM | 18.8 nM
8 | UGGGAAGGAGGAAGGAGCGCCAUAAGGGUGACAGUCUGGGUACAUGAGGAUCACCCAUGUAGGCAGGUAGGUCGCCUCGCUCUCA [XArg-B15] | 26.2 nM | 9.53 nM | 12.8 nM | 14.3 nM | 12.5 nM
9 | UCGUGUAUAUCGGAUACCAGUGAAAACGAUACAUGAGGAUCACCCAUGUGAGUUGAUGUACACCCUUGGCAGCUGUAUAUAUCUA [fokullin] | 16.1 nM |  | 22.7 nM |  | 18.6 nM
10 | AUAACAUGAGGAUCACCCAUGUAUUGGUAACGAGGACCGGUACGGCCGCCACUCGUAUUUUGGUGGUAUUAUAUAUAUAUGAUUA [JR_SSTryptoA_Sub017] | 24.1 nM |  | 28.9 nM | 20.6 nM | 
11 | ACCUGUACGAAAAGUGCAGGACAUGGUAAACGAGGACCGGUACGGCCGCCACUCGAAUAACAAGUGGAUCACCCUUGUAACCAUG [TrypAS 5 #AlternativeMS2 #Zipper #StaticStem] | 39.6 nM | 223 nM | 573 nM | 3020 nM | 1090 nM
12 | AAAUAAUCUAGUCCACAAUGUGACUCAGAUACCAGUGCAAAGCUACACCCUUGGCAGCUGGUUACAUGAGGAUCACCCAUGUCGU [theeternabot_exclusion_MS2_Theo_A_50] | 34.3 nM |  | 51.9 nM |  | 46.9 nM
13 | UAUCCACAUGAGGAUCACCCAUGUUAGGAAGGAGCGGUGAAUGAACCAGGUAGGUCGCCUAGCUGAGGACUGUCGAUGGAUUCGU [Exclusion - Arginine A (Freestyle 17)] | 13.4 nM | 18.1 nM | 28.2 nM | 24.5 nM | 20.5 nM
14 | CGGUUUGUGAUGGAUACCAGCAGAGAAAAUGUUUAUCCUAACAUGAGGAUCACCCAUGUGUGCCCUUGGCAGCUGUUGUGGGCUG [8.W] | 46 nM |  | 72.6 nM |  | 49.7 nM
15 | ACAUGAGGAUCACCCAUGUGAAGCAGGGUACGAGGACCGGUACGGCCGCCACUCGAGCAUUAUACCGAGUGAAUGGCAACGAUGU [whbob_Ex_trypto A_2s17] | 14.4 nM |  | 19 nM | 21.1 nM | 
16 | ACCUGUACGAAAAGUGCAGGACAUGGAAAUCGAGGACCGGUACGGCCGCCACUCGUAUAAAACAAGUGGAUCACCCUUGUCCAUG [TrypAS 2 #AlternativeMS2 #Zipper #StaticStem] | 320 nM | 773 nM | 960 nM | 1500 nM | 1360 nM
17 | UCUAACAUGAGGAUCACCCAUGUACCGUCCCGAGGACCGGUACGGCCGCCACUCGUCUUGCUAAAACUGAAGUGAUCACAAGCCU [theeternabot_sameState_MS2_Trp_A_2] | 25.2 nM |  | 30.9 nM | 24.6 nM | 
18 | CAAGACAUGAGGAUCACCCAUGUGGUGUACCGAGGACCGGUACGGCCGCCACUCGUUCAUCGGUCGACAAGCUACCCUUCAAGGU [theeternabot_sameState_MS2_Trp_A_7] | 25.5 nM |  | 40.4 nM | 27.7 nM | 

Row | Sequence | apparent KD of MS2 coat protein (input ligand: arginine 13.2 mM) | apparent KD of MS2 coat protein (input ligand: none) | apparent KD of MS2 coat protein [1] | apparent KD of MS2 coat protein [2] | apparent KD of MS2 coat protein [3]
19 | AGACAUGAGGAUCACCCAUGUAGUACGGAUACCAGAUCCAGAUGCAUCCCUUGGCAGCUGUGGUACAGCGUUACAUCGCUCGUAG [Exclusion - Theophylline A (Freestyle 22)] | 17 nM |  | 23.9 nM |  | 18.8 nM
20 | CUAUAAGUACCGGUCCUCAGAUCCUCAUGACGAGGACCGGUACGGCCGCCACUCGAAACAUGAGGAUCACCCAUGUAAUAAUACC [Brourdmod16] | 17.5 nM |  | 47.5 nM | 62.6 nM | 
21 | UGGGUCGGAUGAGGAAAUUGUCCGACGUAUCGAGGACCGGUACGGCCGCCACUCGGUUGUACAUGAGGAUCACCCAUGUCAGGGU [#1 Same State - Tryptophan A Attempt #15 (HarryS)] | 194 nM | 218 nM | 269 nM | 327 nM | 128 nM
22 | AGCAUCUAGUCGGCCGCCACUCUUAUUACAUGAGGAUCACCCAUGUUUAAUUCAUGGUUAUAUUUGAGGACCGGGACAUUUGCAU [JR_ExcTryptoB_Sub007] | 39.7 nM |  | 70.2 nM | 74.9 nM | 
23 | GGUCUCUGGAGCGAUACCAGCUUGAUCGUACUAGCCUGGUACAUGAGGAUCACCCAUGUAAGCCCUUGGCAGCGCUCCAGAGACC [#1 Exclusion - Theophylline B Attempt #8 (HarryS)] | 11.8 nM | 12.7 nM | 15.8 nM | 21.4 nM | 12.1 nM
24 | UGACAUUGCUCAGAUACCAGACGUGAGGAUCACCCACGUGCCAACAUGAGGAUCACCCAUGUCCCUUGGCAGCUGAGCAAUGUCU | 12.8 nM |  | 24.1 nM |  | 15.5 nM
25 | ACAUGAGGAUCACCCAUGUACGGUAUCAAUCGAGGACCGGUACGGCCGCCACUCGGAAAUAGAAGCGAUUAUUAGUGUUCUUUGU [Same State - Tryptophan A / A] | 16.1 nM |  | 19 nM | 16.6 nM | 
26 | UCGUGUAUAUCGGAUACCAGUGAAAUCGAUACAUGAGGAUCACCCAUGUGAGAGGAUGUACACCCUUGGCAGCUGUAUAUAUCUG [ll,lmullin] | 18 nM |  | 25.1 nM |  | 20.4 nM
27 | UAUUAUCAGUCGGCCGCCACUGACACAUGAGGAUCACCCAUGUAAUUUGGGUUAUAUAUAAAUUACAGGACCGGGACAAAUGCUA [JR_Nu13_ExcTryptoB_Sub025] | 161 nM |  | 366 nM | 368 nM | 
28 | AACGUGAACGUGGUAUACCCGUGUGCCGAAGGAGCGCCCGUAAGGGCAGGUAGGUCGCGGUCGACAUGAGGAUCACCCAUGUUUG | 39.5 nM | 74.6 nM | 84.2 nM | 106 nM | 81.6 nM
29 | CGCCGCGGGAGAAGGAGCGCGAUAACAUAACAUGAGGAUCACCCAUGUAAGAAAUUAAUCAUGCAGGUAGGUCGCUCCCGCGGCG [Same State Arginine B GF 4] | 16.3 nM | 19.5 nM | 26.5 nM | 23.3 nM | 22.5 nM
30 | ACAUGAGGAUCACCCAUGUGCCGUCUUGAUACCAGACGCGAAGUAGUCCCUUGGCAGCAACUACGUGACGGUCGCGCAUGUGUAG [bcxmullin] | 17.8 nM |  | 21.4 nM |  | 16.1 nM
31 | CAGGCCUUGCCCGGUGUUCCGAAAGUGGAAGGAGCGCACAUUGGUGCAGGUAGGUCGCCACAUGAGGAUCACCCAUGUCUAGGCC [Aveatti] | 54.9 nM | 20 nM | 111 nM | 22.5 nM | 50.2 nM
32 | UAUCCACAUGAGGAUCACCCAUGUAGGGAAGGAGCGGUGGAUGCACCAGGUAGGUCGCCUUGCUGAGGACAGCCGGUGGAUUCGU [Exclusion - Arginine A (Freestyle 27)] | 29 nM | 31.9 nM | 59.6 nM | 46.7 nM | 32.8 nM
33 | GGAGGUACCCGAAGGAGCGACAUGAGGAUCACCCAUGUCUCCCGUUAUGGGAGUUCCUUAGGUCAGGUAGGUCGCGGGUACCUCC [#1 Exclusion - Arginine B Attempt #1 (Inspired by Omei)] | 92.7 nM | 124 nM | 162 nM | 128 nM | 109 nM
34 | AGACAUGAGGAUCACCCAUGUAGUAUGGAUACCAGAUCCAGAUUUAUCCCUUGGCAGCUGUGGUACAGCGAUGGAUCGCUCCUAG [Exclusion - Theophylline A (Freestyle 11)] | 22.6 nM |  | 34 nM |  | 28 nM
35 | ACCGCAUCCGUAUAGGAUGCGGGCCAUGAAGGAGCGUGGGAAACCACAGGUAGGUCGCAUGGGUUACAUGAGGAUCACCCAUGUG [Jaws] | 26.4 nM | 166 nM | 517 nM | 585 nM | 534 nM
36 | GGAUGCGGCACGGCCGCCACUGCGGUGGUGUGACAUGAGGAUCACCCAUGUUGUCAUGCGGCCCUUAGGACCGGGUGGCGUGUCC [#1 Exclusion - Tryptophan B Attempt #19 (HarryS)] | 37.2 nM |  | 57.4 nM | 56.3 nM | 
